The supplement of paper PMC10065799, “High-throughput profiling of sequence recognition by tyrosine kinases and SH2 domains using bacterial peptide display” (eLife, 2023)

Legend:
[1] = molecular target: FGFR3 (UniProt P22607); assay: phosphorylation enrichment, bacterial display (enrichment ratio); higher = better substrate or ligand; peptides without Tyr show the background
[2] = test system: AncSZ; assay: as above
[3] = molecular target: Fyn (UniProt P06241); assay: as above
[4] = molecular target: EPHB1 (UniProt P54762); assay: as above
[5] = test system: Fer (mouse); assay: as above
[6] = molecular target: EPHB2 (UniProt P29323); assay: as above
Sequence of EPHB2 (P29323 whole entry, looked up): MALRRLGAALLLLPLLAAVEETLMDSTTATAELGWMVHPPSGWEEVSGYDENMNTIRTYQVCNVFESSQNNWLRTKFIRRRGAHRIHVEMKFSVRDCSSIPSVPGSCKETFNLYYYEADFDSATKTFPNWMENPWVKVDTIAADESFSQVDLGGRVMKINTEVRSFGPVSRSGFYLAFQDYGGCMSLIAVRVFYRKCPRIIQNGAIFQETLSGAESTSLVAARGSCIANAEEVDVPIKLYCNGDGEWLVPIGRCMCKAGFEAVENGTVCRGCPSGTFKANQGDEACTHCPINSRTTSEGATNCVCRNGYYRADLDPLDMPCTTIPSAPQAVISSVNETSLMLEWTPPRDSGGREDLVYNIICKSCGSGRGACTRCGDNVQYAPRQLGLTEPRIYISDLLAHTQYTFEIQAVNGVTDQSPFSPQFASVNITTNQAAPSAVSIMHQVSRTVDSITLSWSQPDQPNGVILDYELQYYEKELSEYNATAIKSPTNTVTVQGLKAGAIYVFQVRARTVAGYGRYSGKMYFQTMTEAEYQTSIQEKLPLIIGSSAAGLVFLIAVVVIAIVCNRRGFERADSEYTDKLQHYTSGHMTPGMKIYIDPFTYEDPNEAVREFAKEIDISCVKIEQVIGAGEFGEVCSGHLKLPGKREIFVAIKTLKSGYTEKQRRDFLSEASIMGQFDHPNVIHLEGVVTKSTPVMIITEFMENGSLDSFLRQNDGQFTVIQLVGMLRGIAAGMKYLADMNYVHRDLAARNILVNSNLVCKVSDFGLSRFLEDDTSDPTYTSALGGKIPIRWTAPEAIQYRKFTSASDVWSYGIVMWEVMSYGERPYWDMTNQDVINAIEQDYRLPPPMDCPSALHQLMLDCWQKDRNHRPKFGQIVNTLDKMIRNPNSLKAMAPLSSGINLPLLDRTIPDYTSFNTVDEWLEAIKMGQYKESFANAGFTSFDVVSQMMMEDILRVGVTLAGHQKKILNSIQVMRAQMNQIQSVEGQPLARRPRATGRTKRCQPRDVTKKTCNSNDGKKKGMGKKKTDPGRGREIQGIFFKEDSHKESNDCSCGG

[7] = molecular target: Hck (UniProt P08631); assay: as above
Sequence of Hck (P08631 whole entry, looked up): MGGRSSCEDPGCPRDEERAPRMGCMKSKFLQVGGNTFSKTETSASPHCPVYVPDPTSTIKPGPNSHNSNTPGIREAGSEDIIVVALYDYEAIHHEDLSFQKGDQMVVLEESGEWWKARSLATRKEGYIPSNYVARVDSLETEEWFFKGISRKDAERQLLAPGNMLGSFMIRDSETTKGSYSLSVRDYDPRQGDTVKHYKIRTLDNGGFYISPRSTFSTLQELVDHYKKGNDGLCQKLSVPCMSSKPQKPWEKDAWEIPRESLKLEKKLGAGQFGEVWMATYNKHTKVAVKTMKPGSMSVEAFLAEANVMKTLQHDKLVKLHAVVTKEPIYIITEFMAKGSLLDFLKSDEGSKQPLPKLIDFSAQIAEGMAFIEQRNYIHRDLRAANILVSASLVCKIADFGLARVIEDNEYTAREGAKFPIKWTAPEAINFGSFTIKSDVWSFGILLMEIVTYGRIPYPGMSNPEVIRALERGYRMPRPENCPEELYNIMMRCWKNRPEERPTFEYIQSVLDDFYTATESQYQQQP

[8] = test system: c-Src; assay: as above
[9] = molecular target: Jak2 (UniProt O60674); assay: as above
Sequence of Jak2 (O60674 whole entry, looked up): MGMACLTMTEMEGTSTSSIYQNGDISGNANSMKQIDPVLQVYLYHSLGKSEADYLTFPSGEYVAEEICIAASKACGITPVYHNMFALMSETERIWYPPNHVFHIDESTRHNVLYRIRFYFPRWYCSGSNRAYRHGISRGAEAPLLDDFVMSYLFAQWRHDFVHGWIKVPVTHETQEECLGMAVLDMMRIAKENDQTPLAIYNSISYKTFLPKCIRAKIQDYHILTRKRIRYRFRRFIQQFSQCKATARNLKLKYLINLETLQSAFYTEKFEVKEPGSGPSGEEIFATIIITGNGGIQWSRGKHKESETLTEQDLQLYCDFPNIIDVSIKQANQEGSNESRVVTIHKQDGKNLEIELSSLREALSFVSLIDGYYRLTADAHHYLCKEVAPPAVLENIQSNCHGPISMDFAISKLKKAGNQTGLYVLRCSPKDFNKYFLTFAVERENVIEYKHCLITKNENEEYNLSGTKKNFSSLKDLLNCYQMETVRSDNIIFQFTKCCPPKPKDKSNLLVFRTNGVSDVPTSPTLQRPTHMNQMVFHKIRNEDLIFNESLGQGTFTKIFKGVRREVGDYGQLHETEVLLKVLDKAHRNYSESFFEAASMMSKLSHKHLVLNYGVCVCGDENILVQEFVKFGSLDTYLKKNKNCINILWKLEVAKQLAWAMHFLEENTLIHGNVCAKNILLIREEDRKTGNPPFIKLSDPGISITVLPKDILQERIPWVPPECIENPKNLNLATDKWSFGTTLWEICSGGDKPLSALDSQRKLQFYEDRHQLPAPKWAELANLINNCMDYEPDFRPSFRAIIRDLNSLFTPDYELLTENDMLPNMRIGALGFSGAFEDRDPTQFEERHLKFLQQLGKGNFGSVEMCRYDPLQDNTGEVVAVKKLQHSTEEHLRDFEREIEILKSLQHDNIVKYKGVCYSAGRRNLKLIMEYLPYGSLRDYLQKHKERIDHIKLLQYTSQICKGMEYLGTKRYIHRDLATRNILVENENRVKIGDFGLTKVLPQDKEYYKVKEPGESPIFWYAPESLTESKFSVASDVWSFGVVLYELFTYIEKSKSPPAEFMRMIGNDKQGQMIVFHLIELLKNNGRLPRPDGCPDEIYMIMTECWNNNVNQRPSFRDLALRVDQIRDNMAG

[10] = molecular target: FGFR1 (UniProt P11362); assay: as above
[11] = molecular target: MERTK (UniProt Q12866); assay: as above
Sequence of MERTK (Q12866 whole entry, looked up): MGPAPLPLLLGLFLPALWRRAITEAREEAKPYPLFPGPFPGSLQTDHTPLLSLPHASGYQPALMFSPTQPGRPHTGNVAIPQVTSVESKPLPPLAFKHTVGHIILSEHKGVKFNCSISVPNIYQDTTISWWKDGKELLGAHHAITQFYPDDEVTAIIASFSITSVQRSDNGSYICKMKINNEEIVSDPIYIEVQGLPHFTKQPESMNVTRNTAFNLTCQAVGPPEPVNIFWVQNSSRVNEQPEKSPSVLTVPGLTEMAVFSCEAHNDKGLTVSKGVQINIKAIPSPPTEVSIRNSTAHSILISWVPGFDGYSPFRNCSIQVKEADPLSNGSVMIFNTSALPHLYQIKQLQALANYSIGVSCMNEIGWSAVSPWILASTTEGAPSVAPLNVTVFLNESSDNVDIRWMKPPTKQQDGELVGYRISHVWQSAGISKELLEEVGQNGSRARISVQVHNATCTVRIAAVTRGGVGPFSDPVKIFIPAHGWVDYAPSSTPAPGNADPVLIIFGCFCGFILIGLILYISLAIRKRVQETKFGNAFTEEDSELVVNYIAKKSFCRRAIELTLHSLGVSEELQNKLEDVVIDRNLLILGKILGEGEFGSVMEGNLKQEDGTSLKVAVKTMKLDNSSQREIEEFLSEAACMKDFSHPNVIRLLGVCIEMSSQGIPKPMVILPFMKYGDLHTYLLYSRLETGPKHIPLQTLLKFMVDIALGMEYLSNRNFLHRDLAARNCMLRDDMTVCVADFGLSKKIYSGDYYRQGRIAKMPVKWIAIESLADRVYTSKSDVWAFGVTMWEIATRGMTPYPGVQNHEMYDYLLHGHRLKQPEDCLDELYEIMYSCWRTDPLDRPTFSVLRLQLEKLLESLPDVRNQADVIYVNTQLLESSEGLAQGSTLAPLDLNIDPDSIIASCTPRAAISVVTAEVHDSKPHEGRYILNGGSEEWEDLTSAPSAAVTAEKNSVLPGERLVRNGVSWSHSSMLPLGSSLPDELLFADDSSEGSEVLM

[12] = molecular target: Fes (UniProt P07332); assay: as above
[13] = test system: c-Abl (mouse); assay: as above
[14] = molecular target: SHP2-C SH2; assay: SH2 binding enrichment of the phosphorylated peptide, bacterial display (enrichment ratio); higher = better substrate or ligand; peptides without Tyr show the background
[15] = molecular target: Grb2 SH2 (UniProt P62993); assay: as above
[16] = molecular target: c-Src SH2; assay: as above
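For SH2 binding enrichment of the phosphorylated peptide, bacterial display in this document: peptide library displayed on the E. coli surface as eCPX fusions, selected cells deep-sequenced, score is each peptide's frequency after selection divided by its frequency in the input.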
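For phosphorylation enrichment, bacterial display in this document: 11-residue human phosphosite peptides and single-mutation variants displayed on the E. coli surface, counted by deep sequencing, each peptide's frequency after selection divided by its frequency in the unselected input library; frequency after pTyr selection over input frequency; kinase dosed for 20-30% of maximal phosphorylation in three min.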

Sequence of Fyn (P06241 whole entry, looked up): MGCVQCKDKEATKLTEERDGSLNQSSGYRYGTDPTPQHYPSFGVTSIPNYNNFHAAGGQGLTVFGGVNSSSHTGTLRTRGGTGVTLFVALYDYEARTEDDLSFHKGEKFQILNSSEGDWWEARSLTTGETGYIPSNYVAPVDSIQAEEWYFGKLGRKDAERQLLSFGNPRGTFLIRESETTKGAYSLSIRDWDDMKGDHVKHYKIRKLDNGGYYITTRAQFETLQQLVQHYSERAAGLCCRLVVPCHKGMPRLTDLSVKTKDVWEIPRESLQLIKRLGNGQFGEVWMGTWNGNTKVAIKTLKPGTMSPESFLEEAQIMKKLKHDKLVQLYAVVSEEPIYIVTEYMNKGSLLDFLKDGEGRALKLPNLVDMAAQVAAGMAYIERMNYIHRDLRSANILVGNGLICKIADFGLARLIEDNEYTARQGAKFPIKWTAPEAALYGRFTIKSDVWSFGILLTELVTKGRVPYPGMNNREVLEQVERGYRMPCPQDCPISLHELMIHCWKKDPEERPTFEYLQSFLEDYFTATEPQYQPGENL
Sequence of FGFR3 (P22607 whole entry, looked up): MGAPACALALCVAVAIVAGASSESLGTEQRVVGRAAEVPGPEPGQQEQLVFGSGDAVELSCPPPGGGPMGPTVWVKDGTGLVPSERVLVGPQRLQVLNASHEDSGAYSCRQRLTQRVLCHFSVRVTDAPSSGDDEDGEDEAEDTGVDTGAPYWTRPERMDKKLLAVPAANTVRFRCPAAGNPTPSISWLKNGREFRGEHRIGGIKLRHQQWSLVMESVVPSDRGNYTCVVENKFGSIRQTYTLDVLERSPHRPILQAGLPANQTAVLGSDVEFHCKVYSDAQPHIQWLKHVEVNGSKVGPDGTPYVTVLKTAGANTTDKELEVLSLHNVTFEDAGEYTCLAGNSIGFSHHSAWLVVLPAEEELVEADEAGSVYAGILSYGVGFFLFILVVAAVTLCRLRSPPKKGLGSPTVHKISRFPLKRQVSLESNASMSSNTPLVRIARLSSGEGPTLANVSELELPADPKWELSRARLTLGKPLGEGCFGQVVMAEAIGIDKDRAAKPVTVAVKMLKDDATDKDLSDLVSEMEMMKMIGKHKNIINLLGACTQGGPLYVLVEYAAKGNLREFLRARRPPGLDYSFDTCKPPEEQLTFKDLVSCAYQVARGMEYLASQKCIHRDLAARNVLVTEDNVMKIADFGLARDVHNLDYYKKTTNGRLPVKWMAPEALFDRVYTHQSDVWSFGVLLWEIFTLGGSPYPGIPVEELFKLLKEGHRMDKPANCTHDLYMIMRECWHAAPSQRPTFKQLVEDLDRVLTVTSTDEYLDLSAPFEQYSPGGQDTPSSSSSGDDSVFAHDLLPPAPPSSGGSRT

Sequence | SH2 binding enrichment [14] | SH2 binding enrichment [15] | SH2 binding enrichment [16] | phosphorylation enrichment [1] | phosphorylation enrichment [2] | phosphorylation enrichment [3] | phosphorylation enrichment [4] | phosphorylation enrichment [5] | phosphorylation enrichment [6] | phosphorylation enrichment [7] | phosphorylation enrichment [8] | phosphorylation enrichment [9] | phosphorylation enrichment [10] | phosphorylation enrichment [11] | phosphorylation enrichment [12] | phosphorylation enrichment [13]
RALRHYFKLNI [ETV6_Y401_YF] | 2.6 | 2.81 | 1.66 | 0.55 | 0.725 | 0.373 | 0.342 | 0.369 | 0.358 | 0.377 | 0.394 | 0.798 | 0.485 | 0.4 | 0.874 | 0.594
RCKSHYAAFSV [C1QTNF1_Y145] | 1.73 | 1.45 | 1.34 | 0.983 | 1.41 | 1.4 | 1.43 | 1.46 | 0.903 | 1.42 | 1.07 | 0.737 | 1.1 | 2.89 | 1.35 | 4.74
RHPFFYAPELL [ALB_Y174_YF] | 1.14 | 1.34 | 0.988 | 0.969 | 1.61 | 1.32 | 1.18 | 1.06 | 1.04 | 0.733 | 1.05 | 1.97 | 1.25 | 0.839 | 1.99 | 1.12
RHPYFFAPELL [ALB_Y174_Y174F] | 1.01 | 1.22 | 0.954 | 13.9 | 1.22 | 0.601 | 0.723 | 0.541 | 0.613 | 0.598 | 1.29 | 1.39 | 16.3 | 0.557 | 1.33 | 1.19
RIDRKYKKVRF [F8_Y442_G439D] | 0.665 | 1.17 | 0.656 | 0.922 | 1.25 | 0.849 | 0.761 | 0.934 | 0.807 | 1.05 | 1.32 | 2.67 | 0.72 | 1.19 | 1 | 1.3
RISPEYKQNEI [GJB1_Y243_L239I] | 1.15 | 0.944 | 0.412 | 0.836 | 1.15 | 0.922 | 0.998 | 0.687 | 0.73 | 0.607 | 0.604 | 0.983 | 0.866 | 0.598 | 1.07 | 1.06
RLLRGYDQLAY [HLA-C_Y137_S140L] | 0.727 | 1.1 | 5.06 | 0.976 | 1.29 | 0.735 | 0.719 | 0.758 | 0.67 | 0.637 | 0.45 | 0.649 | 0.65 | 0.581 | 1.02 | 0.477

Now from value to sequence, other results behind:

SH2 binding enrichment [14] | SH2 binding enrichment [15] | SH2 binding enrichment [16] | Sequence | phosphorylation enrichment [1] | phosphorylation enrichment [2] | phosphorylation enrichment [3] | phosphorylation enrichment [4] | phosphorylation enrichment [5] | phosphorylation enrichment [6] | phosphorylation enrichment [7] | phosphorylation enrichment [8] | phosphorylation enrichment [9] | phosphorylation enrichment [10] | phosphorylation enrichment [11] | phosphorylation enrichment [12] | phosphorylation enrichment [13]
0.762 | 1 | 0.753 | RAIELCNDKEK [OTULIN_Y244_Y244C] | 0.425 | 0.852 | 0.509 | 0.406 | 0.471 | 0.76 | 0.381 | 0.481 | 0.752 | 0.354 | 0.395 | 1.38 | 0.682
0.746 | 0.957 | 0.36 | REETTYLPLTS [ICAM3_Y527_S525T] | 0.644 | 1.39 | 0.864 | 0.656 | 0.608 | 0.548 | 1.7 | 1.61 | 1.03 | 0.74 | 0.901 | 1.05 | 0.781
2.06 | 0.907 | 0.654 | RESVSYLFSHV [PRPS1_Y311_G306R] | 0.814 | 1 | 1.41 | 0.588 | 0.479 | 0.901 | 0.549 | 0.742 | 1.15 | 0.532 | 0.492 | 1.12 | 1.06
0.771 | 0.793 | 0.463 | RFQKLYLDRNL [IGFALS_Y248_L244F] | 0.655 | 0.726 | 0.492 | 0.529 | 0.224 | 0.509 | 0.569 | 0.332 | 0.538 | 0.636 | 0.342 | 0.761 | 0.486
0.771 | 0.835 | 0.714 | RHFTGCRIELQ [INSR_Y818_Y818C] | 0.672 | 0.779 | 0.403 | 0.545 | 0.503 | 0.778 | 0.613 | 0.508 | 0.884 | 0.488 | 0.421 | 1.49 | 0.665
0.76 | 0.537 | 0.329 | RICRRYCQVLN [IQCF1_Y144_R141C] | 0.66 | 1.03 | 0.748 | 0.676 | 0.654 | 0.624 | 0.7 | 0.738 | 0.817 | 0.857 | 0.758 | 1.18 | 0.701
1.24 | 1.55 | 1.42 | RKMSSYAFFVQ [HMGB1_Y16_G11R] | 0.737 | 1.01 | 0.822 | 0.436 | 0.899 | 0.352 | 0.466 | 0.542 | 0.755 | 0.644 | 1.19 | 1.58 | 0.667
0.363 | 0.295 | 0.296 | RKRQFYLFKGK [RSPO4_Y112_C107R_YF] | 0.803 | 1.15 | 1.14 | 0.741 | 0.787 | 0.71 | 1.19 | 0.809 | 1.06 | 0.555 | 1.22 | 0.949 | 1.25
0.539 | 0.848 | 0.871 | RLGVTYEQALA [MAP2_Y996_G991R] | 0.825 | 1.36 | 0.77 | 0.729 | 0.535 | 1.81 | 0.56 | 1.05 | 1.15 | 0.721 | 0.737 | 1 | 0.965
0.718 | 0.89 | 0.657 | RLLRGHDQSAF [HLA-C_Y137_Y137H_YF] | 0.47 | 0.79 | 0.501 | 0.465 | 0.357 | 0.389 | 0.566 | 0.573 | 0.732 | 0.427 | 0.421 | 0.738 | 0.653
